For one substance, stoichiometry N results are on record in article PMC8509707.

The target in the assay is Recombinant His-tagged C-terminal ^ECFTO domain (CD-FTO) (human). Put plainly: SEC; ^BTCaM (7.6 µM) and/or CD-FTO (15.2 µM), 10 min at 4 °C, SEC650 column in SEC1 buffer (50 mM MES pH 6.5, 150 mM NaCl, 10% glycerol, 1 mM 2-OG, 0.5 mM MnCl2, 0.5 mM CaCl2). (In general: Size exclusion chromatography separates by hydrodynamic size, large species first.)

As usually defined, the stoichiometry N is a count of units in the complex or per binding partner. On to “Recombinant His-tagged C-terminal ^ECFTO domain (CD-FTO) (domain or fragment)”, for which the stoichiometry N amounted to 2.
